Measurements reported in patent US20240287166A1 (published 2024).

Molecular target: T1, CSP on P. falciparum sporozoites (Plasmodium falciparum, UniProt P19597 19-374)
T1 construct: whole, on cells; also called P. falciparum sporozoites, which present CSP in its native conformation
Test: sporozoite ELISA, mouse sera Day 7 (FIG. 6D)

T1 sequence (P19597 19-374): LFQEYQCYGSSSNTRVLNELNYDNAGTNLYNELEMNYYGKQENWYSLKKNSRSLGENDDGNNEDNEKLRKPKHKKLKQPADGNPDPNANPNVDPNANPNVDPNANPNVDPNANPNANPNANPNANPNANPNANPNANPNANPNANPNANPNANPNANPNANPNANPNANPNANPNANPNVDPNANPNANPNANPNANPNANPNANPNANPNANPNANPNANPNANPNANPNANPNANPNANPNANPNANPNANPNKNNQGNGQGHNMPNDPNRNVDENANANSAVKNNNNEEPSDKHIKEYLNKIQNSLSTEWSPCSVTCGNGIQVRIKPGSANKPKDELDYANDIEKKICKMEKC

B1: 10e DMAb-2 (antibody, human IgG1, lambda, V domains shown)
VH: QVQLVESGGGVVQPGRSLRLSCAASGFAFSNYGMHWVRQAPGKGLEWVAVIWHDGSLKYYTQSVKGRFTISRDNSKNTLYLQMNSLRAEDTAVYYCTVWYLETPDDGFDIWGQGTMVTVSS
VL: QLVLTQPPSASASLGVSVTLTCTLSHGHTSKAIAWHQQQPGKGPRYLMKVNSDGSHTKGAAVPDRFSGSTSGAERHFTISNLQSDDEADYYCQAWDSGIWVFGGGTKLTVLG
notes: also called MGU10-based engineered DMAb 2; 10e DMAb-2 (MGU10 VH-1 / MGU10 VL)
- binding result: binds
